Source: the supplement of paper PMC9112550, “Optimization of the antimicrobial peptide Bac7 by deep mutational scanning” (BMC Biology, 2022)

These sequences were tested on Escherichia coli TOP10 (assay: shrunken log2 fold change of peptide-encoding DNA abundance (4.5 h post-induction vs induction); higher = less antimicrobial activity (less host growth inhibition)). Conditions: time post-induction: 4.5 h; library: site-saturation at positions 5, 18, 19, 20.
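Further: peptides expressed intracellularly from a pBAD plasmid library in pooled LB shake-flask culture, induced with 0.3% L-arabinose, DNA abundance read by NGS, three biological replicates, DESeq2 with apeglm shrinkage.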

Question: For RRIRDRPPRLPRPRPRPGGAPRP, which “shrunken log2 fold change” value is on record?
Answer: 0.806

Question: With RRIRDRPPRLPRPRPRPGGWPRP as the sequence, how does the “shrunken log2 fold change” value read?
Answer: 0.975

Question: RRIRDRPPRLPRPRPRPGHPPRP was tested. Which “shrunken log2 fold change” value did it give?
Answer: 0.813

Question: How did the “shrunken log2 fold change” value turn out when RRIRDRPPRLPRPRPRPGIGPRP was run?
Answer: 0.76

Question: For RRIRDRPPRLPRPRPRPGIMPRP, which “shrunken log2 fold change” value is on record?
Answer: 0.0786

Question: Which “shrunken log2 fold change” value does the source give for RRIRDRPPRLPRPRPRPGKGPRP here?
Answer: 0.0189

Question: For RRIRDRPPRLPRPRPRPGLPPRP, which “shrunken log2 fold change” value is on record?
Answer: 0.245

Question: RRIRDRPPRLPRPRPRPGLRPRP was tested. Which “shrunken log2 fold change” value did it give?
Answer: 0.277

Question: For RRIRDRPPRLPRPRPRPGMWPRP, which “shrunken log2 fold change” value is on record?
Answer: 0.634

Question: RRIRDRPPRLPRPRPRPGPPPRP was tested. Which “shrunken log2 fold change” value did it give?
Answer: 0.733

Question: Which “shrunken log2 fold change” value does the source give for RRIRDRPPRLPRPRPRPGRDPRP here?
Answer: 0.193

Question: For RRIRDRPPRLPRPRPRPGRNPRP, which “shrunken log2 fold change” value is on record?
Answer: -0.495

Question: How did the “shrunken log2 fold change” value turn out when RRIRDRPPRLPRPRPRPGSCPRP was run?
Answer: 0.127

Question: Which “shrunken log2 fold change” value does the source give for RRIRDRPPRLPRPRPRPGSVPRP here?
Answer: 0.113

Question: For RRIRDRPPRLPRPRPRPGVIPRP, which “shrunken log2 fold change” value is on record?
Answer: -0.00423

Question: RRIRDRPPRLPRPRPRPGWGPRP was tested. Which “shrunken log2 fold change” value did it give?
Answer: 0.687

Question: Which “shrunken log2 fold change” value does the source give for RRIRDRPPRLPRPRPRPGYNPRP here?
Answer: -0.0937

Question: Which “shrunken log2 fold change” value does the source give for RRIRDRPPRLPRPRPRPGYQPRP here?
Answer: -0.0782

Question: How did the “shrunken log2 fold change” value turn out when RRIRDRPPRLPRPRPRPHAFPRP was run?
Answer: -0.0699

Question: Which “shrunken log2 fold change” value does the source give for RRIRDRPPRLPRPRPRPHANPRP here?
Answer: 0.0766

Question: RRIRDRPPRLPRPRPRPHDAPRP was tested. Which “shrunken log2 fold change” value did it give?
Answer: 0.0126

Question: With RRIRDRPPRLPRPRPRPHDVPRP as the sequence, how does the “shrunken log2 fold change” value read?
Answer: -0.00973

Question: With RRIRDRPPRLPRPRPRPHEEPRP as the sequence, how does the “shrunken log2 fold change” value read?
Answer: 0.175

Question: With RRIRDRPPRLPRPRPRPHFTPRP as the sequence, how does the “shrunken log2 fold change” value read?
Answer: -0.307

Question: With RRIRDRPPRLPRPRPRPHGTPRP as the sequence, how does the “shrunken log2 fold change” value read?
Answer: 0.0175

Question: How did the “shrunken log2 fold change” value turn out when RRIRDRPPRLPRPRPRPHIFPRP was run?
Answer: -0.361

Question: How did the “shrunken log2 fold change” value turn out when RRIRDRPPRLPRPRPRPHLIPRP was run?
Answer: -0.0328

Question: With RRIRDRPPRLPRPRPRPHLRPRP as the sequence, how does the “shrunken log2 fold change” value read?
Answer: -0.00431

Question: For RRIRDRPPRLPRPRPRPHMNPRP, which “shrunken log2 fold change” value is on record?
Answer: 0.001

Question: RRIRDRPPRLPRPRPRPHNFPRP was tested. Which “shrunken log2 fold change” value did it give?
Answer: 0.0112

Question: RRIRDRPPRLPRPRPRPHQAPRP was tested. Which “shrunken log2 fold change” value did it give?
Answer: -0.0175

Question: Which “shrunken log2 fold change” value does the source give for RRIRDRPPRLPRPRPRPHQLPRP here?
Answer: -0.0991

Question: Which “shrunken log2 fold change” value does the source give for RRIRDRPPRLPRPRPRPHQYPRP here?
Answer: 0.0144

Question: For RRIRDRPPRLPRPRPRPHSIPRP, which “shrunken log2 fold change” value is on record?
Answer: 0.0345

Question: With RRIRDRPPRLPRPRPRPHVDPRP as the sequence, how does the “shrunken log2 fold change” value read?
Answer: 0.07

Question: For RRIRDRPPRLPRPRPRPHWHPRP, which “shrunken log2 fold change” value is on record?
Answer: -0.192

Question: For RRIRDRPPRLPRPRPRPHWIPRP, which “shrunken log2 fold change” value is on record?
Answer: -0.693

Question: RRIRDRPPRLPRPRPRPHWTPRP was tested. Which “shrunken log2 fold change” value did it give?
Answer: -0.179

Question: Which “shrunken log2 fold change” value does the source give for RRIRDRPPRLPRPRPRPHWVPRP here?
Answer: 0.0635

Question: Which “shrunken log2 fold change” value does the source give for RRIRDRPPRLPRPRPRPHWYPRP here?
Answer: -0.212

Question: RRIRDRPPRLPRPRPRPIAFPRP was tested. Which “shrunken log2 fold change” value did it give?
Answer: 0.15

Question: With RRIRDRPPRLPRPRPRPIDHPRP as the sequence, how does the “shrunken log2 fold change” value read?
Answer: -0.273

Question: With RRIRDRPPRLPRPRPRPIELPRP as the sequence, how does the “shrunken log2 fold change” value read?
Answer: 0.0698

Question: How did the “shrunken log2 fold change” value turn out when RRIRDRPPRLPRPRPRPIEWPRP was run?
Answer: 0.015

Question: For RRIRDRPPRLPRPRPRPIFHPRP, which “shrunken log2 fold change” value is on record?
Answer: -0.158

Question: For RRIRDRPPRLPRPRPRPIFTPRP, which “shrunken log2 fold change” value is on record?
Answer: -0.0502

Question: With RRIRDRPPRLPRPRPRPIGKPRP as the sequence, how does the “shrunken log2 fold change” value read?
Answer: -0.153

Question: RRIRDRPPRLPRPRPRPIIIPRP was tested. Which “shrunken log2 fold change” value did it give?
Answer: -0.153

Question: With RRIRDRPPRLPRPRPRPIIQPRP as the sequence, how does the “shrunken log2 fold change” value read?
Answer: -0.0678

Question: For RRIRDRPPRLPRPRPRPIISPRP, which “shrunken log2 fold change” value is on record?
Answer: 0.0102

Question: Which “shrunken log2 fold change” value does the source give for RRIRDRPPRLPRPRPRPIKDPRP here?
Answer: -4

Question: For RRIRDRPPRLPRPRPRPIKQPRP, which “shrunken log2 fold change” value is on record?
Answer: -0.00204

Question: For RRIRDRPPRLPRPRPRPILFPRP, which “shrunken log2 fold change” value is on record?
Answer: -0.185

Question: For RRIRDRPPRLPRPRPRPILVPRP, which “shrunken log2 fold change” value is on record?
Answer: 0.0243

Question: For RRIRDRPPRLPRPRPRPIMLPRP, which “shrunken log2 fold change” value is on record?
Answer: -0.0957

Question: Which “shrunken log2 fold change” value does the source give for RRIRDRPPRLPRPRPRPIRLPRP here?
Answer: 0.015

Question: How did the “shrunken log2 fold change” value turn out when RRIRDRPPRLPRPRPRPISDPRP was run?
Answer: 0.0148

Question: With RRIRDRPPRLPRPRPRPISHPRP as the sequence, how does the “shrunken log2 fold change” value read?
Answer: 0.0261

Question: RRIRDRPPRLPRPRPRPITHPRP was tested. Which “shrunken log2 fold change” value did it give?
Answer: -0.305

Question: How did the “shrunken log2 fold change” value turn out when RRIRDRPPRLPRPRPRPITNPRP was run?
Answer: -0.33

Question: Which “shrunken log2 fold change” value does the source give for RRIRDRPPRLPRPRPRPIWAPRP here?
Answer: -0.0982

Question: With RRIRDRPPRLPRPRPRPIYTPRP as the sequence, how does the “shrunken log2 fold change” value read?
Answer: -0.105

Question: With RRIRDRPPRLPRPRPRPKACPRP as the sequence, how does the “shrunken log2 fold change” value read?
Answer: 0.024

Question: RRIRDRPPRLPRPRPRPKATPRP was tested. Which “shrunken log2 fold change” value did it give?
Answer: 0.00253

Question: How did the “shrunken log2 fold change” value turn out when RRIRDRPPRLPRPRPRPKFGPRP was run?
Answer: 0.0019

Question: With RRIRDRPPRLPRPRPRPKGKPRP as the sequence, how does the “shrunken log2 fold change” value read?
Answer: 0.142

Question: With RRIRDRPPRLPRPRPRPKGYPRP as the sequence, how does the “shrunken log2 fold change” value read?
Answer: -0.097

Question: Which “shrunken log2 fold change” value does the source give for RRIRDRPPRLPRPRPRPKIHPRP here?
Answer: -0.214

Question: With RRIRDRPPRLPRPRPRPKINPRP as the sequence, how does the “shrunken log2 fold change” value read?
Answer: -0.389

Question: RRIRDRPPRLPRPRPRPKIPPRP was tested. Which “shrunken log2 fold change” value did it give?
Answer: -0.355

Question: RRIRDRPPRLPRPRPRPKMEPRP was tested. Which “shrunken log2 fold change” value did it give?
Answer: -0.00783

Question: How did the “shrunken log2 fold change” value turn out when RRIRDRPPRLPRPRPRPKMSPRP was run?
Answer: -0.0119

Question: How did the “shrunken log2 fold change” value turn out when RRIRDRPPRLPRPRPRPKNLPRP was run?
Answer: -0.0874

Question: For RRIRDRPPRLPRPRPRPKPNPRP, which “shrunken log2 fold change” value is on record?
Answer: 0.45

Question: Which “shrunken log2 fold change” value does the source give for RRIRDRPPRLPRPRPRPKPRPRP here?
Answer: 0.711
